Results: the supplement of paper PMC6755084

B1: F1*; the commonest letter at each place (parent)
chain: GAGACCGCAACTGAAAAGTTGTTATCACTTGTCGTAAGACACTTTGGATGGGTTGAAGTTCTGCACGTAGAAGCAAAAGGC

Variants of: B1
Assay: fraction ligated after 30 min (ligated reads / total reads); higher = more ligase activity
Details: with F1*sub RNA substrate (template-directed ligation), 42 °C
In short: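 Oligo-pool templates of ligase ribozyme variants were PCR-amplified, T7-transcribed and gel-purified. Ligated and unligated bands were gel-separated, reverse transcribed with barcoded primers, and MiSeq-sequenced; core bases were filtered at quality ≥20. Fraction ligated per variant was ligated reads over total reads.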

Row | Variant | fraction ligated
1 | T29G G47C | 0.696
2 | T29G G47T | 0.738
3 | T29A A36T | 0.847
4 | T29A A36C | 0.855
5 | T29A A36G | 0.853
6 | T30A A57G | 0.837
7 | T30A A57C | 0.778
8 | T30A A57T | 0.8
9 | T29C G34A | 0.827
10 | T29C G34C | 0.793
11 | T29C G34T | 0.823
12 | T29G A57G | 0.776
13 | T29G A57C | 0.765
14 | T29G A57T | 0.811
15 | C28T T32C | 0.753
16 | C28T T32A | 0.822
17 | C28T T32G | 0.8
18 | T30A G55T | 0.818
19 | T30A G55C | 0.741
20 | T30A G55A | 0.816
21 | T30A T32C | 0.768
22 | T30A T32G | 0.842
23 | T30A T32A | 0.843
24 | T30A C42G | 0.847

Row | Variant | fraction ligated
25 | T30A C42T | 0.852
26 | T30A C42A | 0.815
27 | C28T G47A | 0.787
28 | C28T G47C | 0.252
29 | C28T G47T | 0.3
30 | T29G T30G | 0.844
31 | T29G T30C | 0.828
32 | T29G T30A | 0.823
33 | T29C C42G | 0.818
34 | T29C C42A | 0.85
35 | T29C C42T | 0.828
36 | T30A G47A | 0.793
37 | T30A G47C | 0.128
38 | T30A G47T | 0.373
39 | T30A G31C | 0.784
40 | T30A G31A | 0.842
41 | T30A G31T | 0.831
42 | T29A G31C | 0.842
43 | T29A G31A | 0.844
44 | T29A G31T | 0.845
45 | T29A C40A | 0.851
46 | T29A C40T | 0.857
47 | T29A C40G | 0.854
48 | T29G T35C | 0.803

Row | Variant | fraction ligated
49 | T29G T35G | 0.813
50 | T29G T35A | 0.83
51 | T30A C33G | 0.84
52 | T30A C33T | 0.849
53 | T30A C33A | 0.847
54 | T29A T44C | 0.825
55 | T29A T44G | 0.812
56 | T29A T44A | 0.833
57 | T29A T35A | 0.821
58 | T29A T35G | 0.834
59 | T29A T35C | 0.828
60 | T29A T30C | 0.856
61 | T29A T30G | 0.828
62 | T29A T30A | 0.86
63 | T29C T44G | 0.848
64 | T29C T44A | 0.802
65 | T29C T44C | 0.822
66 | T30A A36T | 0.823
67 | T30A A36C | 0.854
68 | T30A A36G | 0.832
69 | T29A G47T | 0.473
70 | T29A G47C | 0.249
71 | T29A G47A | 0.804
72 | T29G C42G | 0.839

Row | Variant | fraction ligated
73 | T29G C42A | 0.813
74 | T29G C42T | 0.83
75 | T30A G38A | 0.813
76 | T30A G38T | 0.832
77 | T30A G38C | 0.795
78 | T29G C40G | 0.83
79 | T29G C40A | 0.84
80 | T29G C40T | 0.809
81 | T30A G50C | 0.111
82 | T30A G50T | 0.57
83 | T30A G50A | 0.22
84 | C28T C40A | 0.824
85 | C28T C40T | 0.796
86 | C28T C40G | 0.81
87 | T29G T45C | 0.677
88 | T29G T45G | 0.267
89 | T29G T45A | 0.673
90 | C28T G31T | 0.826
91 | C28T G31A | 0.81
92 | C28T G31C | 0.828
93 | T29C T45G | 0.239
94 | T29C T45C | 0.471
95 | T29C T45A | 0.554
96 | T30A T43A | 0.828

Row | Variant | fraction ligated
97 | T30A T43G | 0.8
98 | T30A T43C | 0.794
99 | C28T G50A | 0.352
100 | C28T G50C | 0.323
101 | C28T G50T | 0.747
102 | T29A C33A | 0.852
103 | T29A C33G | 0.868
104 | T29A C33T | 0.859
105 | T29G A41C | 0.83
106 | T29G A41G | 0.815
107 | T29G A41T | 0.833
108 | T29A A39G | 0.845
109 | T29A A39T | 0.831
110 | T29A A39C | 0.82
111 | T29C A36T | 0.834
112 | T29C A36G | 0.841
113 | T29C A36C | 0.821
114 | T29A A41C | 0.801
115 | T29A A41T | 0.827
116 | T29A A41G | 0.816
117 | C28T G38C | 0.799
118 | C28T G38T | 0.795
119 | C28T G38A | 0.811
120 | C28T T44C | 0.783

Row | Variant | fraction ligated
121 | C28T T44A | 0.816
122 | C28T T44G | 0.813
123 | T29G G34T | 0.83
124 | T29G G34C | 0.808
125 | T29G G34A | 0.824
126 | T29A G34C | 0.816
127 | T29A G34A | 0.852
128 | T29A G34T | 0.842
129 | C28T G55T | 0.765
130 | C28T G55A | 0.801
131 | C28T G55C | 0.221
132 | T29G A48C | 0.756
133 | T29G A48T | 0.773
134 | T29G A48G | 0.805
135 | T29C A48G | 0.389
136 | T29C A48C | 0.745
137 | T29C A48T | 0.592
138 | T29G G38T | 0.855
139 | T29G G38C | 0.844
140 | T29G G38A | 0.844
141 | T29G A36T | 0.826
142 | T29G A36C | 0.825
143 | T29G A36G | 0.823
144 | T29C G50T | 0.41

Row | Variant | fraction ligated
145 | T29C G50A | 0.116
146 | T29C G50C | 0.112
147 | T29G T49G | 0.77
148 | T29G T49A | 0.753
149 | T29G T49C | 0.733
150 | T29C T30G | 0.805
151 | T29C T30C | 0.782
152 | T29C T30A | 0.796
153 | C28T T30C | 0.805
154 | C28T T30A | 0.814
155 | C28T T30G | 0.791
156 | T29G C33T | 0.808
157 | T29G C33G | 0.865
158 | T29G C33A | 0.85
159 | T29G A56G | 0.749
160 | T29G A56T | 0.793
161 | T29G A56C | 0.787
162 | T29G G50A | 0.345
163 | T29G G50C | 0.243
164 | T29G G50T | 0.683
165 | T29G G31A | 0.836
166 | T29G G31T | 0.835
167 | T29G G31C | 0.804
